Data taken from US10428140B2, “Anti-EphA4 antibody” (EISAI R&D MANAGEMENT CO., LTD., priority 2015, dated 2019).

T1: human EphA1 (Homo sapiens, UniProt P21709)
T1 construct: a protein of the extracellular region of each human Eph receptor fused with the SEAP protein and the His tag; made in house; host or cells: Expi293F cells (culture supernatant)
T1 sequence (P21709 26-547 limits assumed): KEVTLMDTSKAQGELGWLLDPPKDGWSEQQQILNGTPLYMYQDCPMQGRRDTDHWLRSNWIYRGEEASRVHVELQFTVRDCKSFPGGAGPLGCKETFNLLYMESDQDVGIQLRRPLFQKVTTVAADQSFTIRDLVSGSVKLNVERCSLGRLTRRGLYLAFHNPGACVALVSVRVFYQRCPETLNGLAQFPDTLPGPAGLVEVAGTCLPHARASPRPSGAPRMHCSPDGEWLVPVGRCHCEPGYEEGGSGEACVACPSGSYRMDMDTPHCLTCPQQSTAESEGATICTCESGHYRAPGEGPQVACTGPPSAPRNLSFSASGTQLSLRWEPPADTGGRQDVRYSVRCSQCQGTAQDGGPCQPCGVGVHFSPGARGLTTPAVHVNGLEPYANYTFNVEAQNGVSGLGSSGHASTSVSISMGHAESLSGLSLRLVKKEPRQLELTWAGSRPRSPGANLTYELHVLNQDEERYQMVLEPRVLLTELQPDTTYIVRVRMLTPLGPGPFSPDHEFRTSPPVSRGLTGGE

T2: human EphA8 (Homo sapiens, UniProt P29322)
T2 construct: a protein of the extracellular region of each human Eph receptor fused with the SEAP protein and the His tag; made in house; host or cells: Expi293F cells (culture supernatant)
T2 sequence (P29322 28-542 limits assumed): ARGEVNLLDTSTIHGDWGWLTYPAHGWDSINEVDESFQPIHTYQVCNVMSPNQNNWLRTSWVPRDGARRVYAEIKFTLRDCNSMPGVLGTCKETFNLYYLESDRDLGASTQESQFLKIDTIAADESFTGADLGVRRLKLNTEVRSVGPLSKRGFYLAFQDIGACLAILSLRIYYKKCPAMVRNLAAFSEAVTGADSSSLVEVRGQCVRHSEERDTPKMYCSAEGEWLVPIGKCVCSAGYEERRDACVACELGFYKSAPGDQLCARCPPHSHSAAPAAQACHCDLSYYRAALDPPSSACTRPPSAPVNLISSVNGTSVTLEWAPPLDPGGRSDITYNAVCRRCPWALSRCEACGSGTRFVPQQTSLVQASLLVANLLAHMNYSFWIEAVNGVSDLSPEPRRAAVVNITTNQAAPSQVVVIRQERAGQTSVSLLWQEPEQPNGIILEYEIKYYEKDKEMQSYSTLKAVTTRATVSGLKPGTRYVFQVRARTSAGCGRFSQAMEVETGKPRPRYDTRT

T3: human EphB1 (Homo sapiens, UniProt P54762)
T3 construct: a protein of the extracellular region of each human Eph receptor fused with the SEAP protein and the His tag; made in house; host or cells: Expi293F cells (culture supernatant)
T3 sequence (P54762 18-540 limits assumed): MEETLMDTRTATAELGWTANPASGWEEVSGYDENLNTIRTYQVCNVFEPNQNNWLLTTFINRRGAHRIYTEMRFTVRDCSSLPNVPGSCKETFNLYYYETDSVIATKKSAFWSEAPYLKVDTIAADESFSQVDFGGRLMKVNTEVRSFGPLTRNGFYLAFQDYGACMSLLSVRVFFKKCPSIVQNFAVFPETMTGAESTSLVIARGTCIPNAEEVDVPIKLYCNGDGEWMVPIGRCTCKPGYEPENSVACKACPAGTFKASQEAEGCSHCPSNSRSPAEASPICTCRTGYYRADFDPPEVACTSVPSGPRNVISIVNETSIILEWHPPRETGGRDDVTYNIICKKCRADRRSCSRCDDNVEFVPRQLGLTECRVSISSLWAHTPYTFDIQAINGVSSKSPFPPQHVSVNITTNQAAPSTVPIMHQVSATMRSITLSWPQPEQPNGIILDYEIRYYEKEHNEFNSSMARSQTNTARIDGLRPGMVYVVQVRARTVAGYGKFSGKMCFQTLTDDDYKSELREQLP


Assays:
Experiment in all cases: Selectivity ELISA of humanized antibodies for human Eph receptor
Type in all cases: binding
Conditions in all cases: coated protein 1 nM
[1] = biological target: T1, human EphA1
In short: (§1)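 Extracellular domains of human Eph receptors fused to SEAP-His were expressed in Expi293F cells for 5 days and captured from supernatant (1 nM final) on anti-His-coated plates. Humanized anti-EphA4 antibodies were incubated 1 h at room temperature, then HRP anti-IgG secondary, TMB substrate, and absorbance at 450 nm.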

[2] = biological target: T2, human EphA8
In short: as §1

[3] = biological target: T3, human EphB1
In short: as §1

hEphA1-SEAP-: absorbance at 450 nm, percentage with respect to hEphA4-SEAP-His as 100% [1] [%] | hEphA8-SEAP-: absorbance at 450 nm, percentage with respect to hEphA4-SEAP-His as 100% [2] [%] | hEphB1-SEAP-: absorbance at 450 nm, percentage with respect to hEphA4-SEAP-His as 100% [3] [%] | Molecule
5.9 | 5.7 | 5.7 | 86 (antibody, V domains shown, constant regions without entry; synthetic humanized antibody light chain variable region sequence; synthetic humanized antibody heavy chain variable region sequence) VL: DIQMTQSPSSLSASVGDRVTITCRASENIYRNLAWYQQKPGKAPKLLLYAATNLADGVPSRFSGSGSGTDYTLTISSLQSEDFATYYCQHFWGTPWTFGQGTKVEIK VH: QIQLVQSGSELKKPGASVKVSCKASGYTFTDYSMHWVRQAPGQGLKWMGWINTETGEPTYADDFKGRFVFSLDTSVSTAYLQISSLKAEDTAVYYCARIPLYYYGSRYWYFDVWGQGTTVTVSS
7.0 | 6.7 | 6.9 | 92 (antibody, V domains shown, constant regions without entry; synthetic humanized antibody light chain variable region sequence; synthetic humanized antibody heavy chain variable region sequence) VL: DIQMTQSPSSLSASVGDRVTITCRASENIYRNLAWYQQKPGKAPQLLLYAATNLADGVPSRFSGSGSGTDYTLTISSLQPEDFATYYCQHFWGTPWTFGQGTKVEIK VH: QIQLVQSGSELKKPGASVKVSCKASGYTFTDYSMHWVRQAPGQGLKWMGWINTETGEPTYADDFKGRFVFSLDTSVSTAYLQISSLKAEDTAVYYCARIPLYYYGSRYWYFDVWGQGTTVTVSS
5.8 | 6.2 | 6.1 | 88 (antibody, V domains shown, constant regions without entry; synthetic humanized antibody light chain variable region sequence; synthetic humanized antibody heavy chain variable region sequence) VL: DIQMTQSPSSLSASVGDRVTITCRASENIYRNLAWYQQKPGKAPQLLLYAATNLADGVPSRFSGSGSGTDYTLTISSLQPEDFATYYCQHFWGTPWTFGQGTKVEIK VH: QVQLVQSGSELKKPGASVKVSCKASGYTFTDYSMHWVRQAPGQGLKWMGWINTETGEPTYAQGFTGRFVFSLDTSVSTAYLQISSLKAEDTAVYYCARIPLYYYGSRYWYFDVWGQGTTVTVSS
5.5 | 5.7 | 5.7 | 89 (antibody, V domains shown, constant regions without entry; synthetic humanized antibody light chain variable region sequence; synthetic humanized antibody heavy chain variable region sequence) VL: DIQMTQSPSSLSASVGDRVTITCRASENIYRNLAWYQQKPGKAPQLLLYAATNLADGVPSRFSGSGSGTDYTLTISSLQPEDFATYYCQHFWGTPWTFGQGTKVEIK VH: QIQLVQSGSELKKPGASVKVSCKASGYTFTDYSMHWVRQAPGQGLKWMGWINTETGEPTYAQGFTGRFVFSLDTSVSTAYLQISSLKAEDTAVYYCARIPLYYYGSRYWYFDVWGQGTTVTVSS

Continued, molecule first:

Molecule | hEphA1-SEAP-: absorbance at 450 nm, percentage with respect to hEphA4-SEAP-His as 100% [1] [%] | hEphA8-SEAP-: absorbance at 450 nm, percentage with respect to hEphA4-SEAP-His as 100% [2] [%] | hEphB1-SEAP-: absorbance at 450 nm, percentage with respect to hEphA4-SEAP-His as 100% [3] [%]
91 (antibody, V domains shown, constant regions without entry; synthetic humanized antibody light chain variable region sequence; synthetic humanized antibody heavy chain variable region sequence) VL: DIQMTQSPSSLSASVGDRVTITCRASENIYRNLAWYQQKPGKAPQLLLYAATNLADGVPSRFSGSGSGTDYTLTISSLQPEDFATYYCQHFWGTPWTFGQGTKVEIK VH: QVQLVQSGSELKKPGASVKVSCKASGYTFTDYSMHWVRQAPGQGLKWMGWINTETGEPTYADDFKGRFVFSLDTSVSTAYLQISSLKAEDTAVYYCARIPLYYYGSRYWYFDVWGQGTTVTVSS | 5.8 | 6.2 | 6.6
90 (antibody, V domains shown, constant regions without entry; synthetic humanized antibody light chain variable region sequence; synthetic humanized antibody heavy chain variable region sequence) VL: DIQMTQSPSSLSASVGDRVTITCRASENIYRNLAWYQQKPGKAPQLLLYAATNLADGVPSRFSGSGSGTDYTLTISSLQPEDFATYYCQHFWGTPWTFGQGTKVEIK VH: QVQLVQSGSELKKPGASVKVSCKASGYTFTDYSMHWVRQAPGQGLEWMGWINTETGEPTYADDFKGRFVFSLDTSVSTAYLQISSLKAEDTAVYYCARIPLYYYGSRYWYFDVWGQGTTVTVSS | 5.1 | 5.4 | 4.9
93 (antibody, V domains shown, constant regions without entry; synthetic humanized antibody light chain variable region sequence; synthetic humanized antibody heavy chain variable region sequence) VL: EIVMTQSPATLSVSPGERATLSCRASENIYRNLAWYQQKPGQSPRLLIYAATNLADGIPARFSGSGSGTEYTLTISSLQSEDFAVYYCQHFWGTPWTFGQGTKVEIK VH: QVQLVQSGSELKKPGASVKVSCKASGYTFTDYSMHWVRQAPGQGLEWMGWINTETGEPTYAQGFTGRFVFSLDTSVSTAYLQISSLKAEDTAVYYCARIPLYYYGSRYWYFDVWGQGTTVTVSS | 5.0 | 5.0 | 5.0
87 (antibody, V domains shown, constant regions without entry; synthetic humanized antibody light chain variable region sequence; synthetic humanized antibody heavy chain variable region sequence) VL: DIQMTQSPSSLSASVGDRVTITCRASENIYRNLAWYQQKPGKAPQLLLYAATNLADGVPSRFSGSGSGTDYTLTISSLQPEDFATYYCQHFWGTPWTFGQGTKVEIK VH: QVQLVQSGSELKKPGASVKVSCKASGYTFTDYSMHWVRQAPGQGLEWMGWINTETGEPTYAQGFTGRFVFSLDTSVSTAYLQISSLKAEDTAVYYCARIPLYYYGSRYWYFDVWGQGTTVTVSS | 5.3 | 5.7 | 5.3
